Measurements reported in the supplement of paper PMC7877785.
± gives the uncertainty stated by the source.

Assay: self-splicing fitness, log relative to wild type (ln ratio); higher = more splicing; Tetrahymena group I intron in knt gene, E. coli kanamycin selection, DiMSum; sequences stand for … in CUCUCU…GGAGGGAAAAGUUAUCAGGCAUGCACCUGGUAGCUAGUCUUUAAACCAAUAGAUUGCAUCGGUUUAAAAGGCAAGACCGUCAAAUUGCGGGAAAGGGGUCAACAGCCGUUCAGUACCAAGUCUCAGGGGAAACUUUGAGAUGGCCUUGCAAAGGGUAUGGUAAUAAGCUGACGGACAUGGUCCUAACCACGCAGCCAAGUCCUAAGUCAACAGAUCUUCUGUUGAUAUGGAUGCAGUUCACAGACUAAAUGUCGGUCGGGGAAGAUGUAUUCUUCUCAUAAGAUAUAGUCGGACCUCUCCUUAAUGGGAGCUAGCGGAUGAAGUGAUGCAACACUGGAGCCGCUGGGAACUAAUUUGUAUGCGAAAGUAUAUUGAUUAGUUUUGGAGUACUCGUGGUCG
Summary of the method: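 A randomised library covering all eight P1ex-region intron nucleotides was built with the intron in the knt kanamycin-resistance gene on pET-22b(+) and held in E. coli BL21(DE3). Cells were grown overnight at 37°C or 30°C on LB agar, with or without 25 μg/mL kanamycin, plus 100 μg/mL carbenicillin, 50 μM IPTG and 0.2% rhamnose, and pooled colonies were amplicon-sequenced on an Illumina HiSeq 2500. DiMSum fitness is the error-weighted combination of wild-type-normalised replicate fold changes, kanamycin versus none.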

| Sequence | self-splicing fitness (ln) (37 °C) | self-splicing fitness (ln) (30 °C) |
| --- | --- | --- |
| CGUUAGCAAUAUUACGAAUU | -2.39 ± 0.33 |  |
| AGCCAGCAAUAUUACGAAUA | -2.94 ± 0.3 | -3.25 ± 0.27 |
| AUUCAGCAAUAUUACGAUAG | -2.57 ± 0.26 | -3.99 ± 0.42 |
| CAACAGCAAUAUUACGUGGC | -2.81 ± 0.16 | -3.17 ± 0.12 |
| GAUCAGCAAUAUUACGAAAG | -1.2 ± 0.24 | -0.98 ± 0.14 |
| GUAAAGCAAUAUUACGGCUC | 0.298 ± 0.1 | -0.0413 ± 0.071 |
| GAGGAGCAAUAUUACGUCUC | -0.811 ± 0.49 |  |
| CUACAGCAAUAUUACGCGCU | -1.5 ± 0.23 | -3.59 ± 0.28 |
| CCGAAGCAAUAUUACGGCAU | -2.92 ± 0.23 | -4.19 ± 0.31 |
| CCCUAGCAAUAUUACGCUCA | -2.67 ± 0.36 |  |
| AAAUAGCAAUAUUACGUAUU | -0.844 ± 0.094 | -2.56 ± 0.11 |
| CGUUAGCAAUAUUACGUCCG | -0.407 ± 0.2 | -0.128 ± 0.18 |
| AUAAAGCAAUAUUACGGAGG | -1.67 ± 0.24 | -3.18 ± 0.18 |
| UACUAGCAAUAUUACGGUCU | -0.2 ± 0.13 | -1.3 ± 0.094 |
| CUUCAGCAAUAUUACGUUAA | -3.51 ± 0.46 | -2.84 ± 0.24 |
| UGUUAGCAAUAUUACGUGGU | -2.76 ± 0.14 | -4.24 ± 0.19 |
| GAUGAGCAAUAUUACGCCCU | -1.4 ± 0.17 | -1.75 ± 0.15 |
| UCUUAGCAAUAUUACGUGGC | -1.6 ± 0.42 |  |
| GUACAGCAAUAUUACGCUAA | -0.948 ± 0.11 | -2.37 ± 0.14 |
| UAAAAGCAAUAUUACGCGGU | -2.34 ± 0.27 | -3.58 ± 0.29 |

| Sequence | self-splicing fitness (ln) (37 °C) | self-splicing fitness (ln) (30 °C) |
| --- | --- | --- |
| UCUUAGCAAUAUUACGUUAA | -2.67 ± 0.38 | -2.98 ± 0.26 |
| AAAAAGCAAUAUUACGCCUA | -0.855 ± 0.094 | -0.792 ± 0.12 |
| ACCUAGCAAUAUUACGGGAU | -0.904 ± 0.1 | -2.07 ± 0.1 |
| GUACAGCAAUAUUACGCCUA | -0.254 ± 0.09 | -1.06 ± 0.099 |
| CUUGAGCAAUAUUACGUCGC | -1.81 ± 0.19 | -2.54 ± 0.21 |
| CCCAAGCAAUAUUACGAAUU | -2.87 ± 0.15 | -3.33 ± 0.12 |
| UUAUAGCAAUAUUACGCAGU | -1.61 ± 0.33 |  |
| CGGUAGCAAUAUUACGAAUU | -2.34 ± 0.24 | -2.07 ± 0.24 |
| AGACAGCAAUAUUACGCGUA | -0.867 ± 0.074 | -1.43 ± 0.084 |
| GCUUAGCAAUAUUACGGUUA | -0.548 ± 0.11 | -0.517 ± 0.11 |
| CCACAGCAAUAUUACGGGAU | -2.33 ± 0.15 | -4.56 ± 0.26 |
| CUGCAGCAAUAUUACGACGA | -1.16 ± 0.17 | -1.85 ± 0.18 |
| CUUCAGCAAUAUUACGUCGA | -2.95 ± 0.3 | -4.35 ± 0.46 |
| CUCGAGCAAUAUUACGCAUA |  | -2.34 ± 0.26 |
| CUCCAGCAAUAUUACGCAGC | -2.25 ± 0.49 | -2.51 ± 0.15 |
| CAGGAGCAAUAUUACGACGU | -2.13 ± 0.2 | -3.17 ± 0.16 |
| GAUCAGCAAUAUUACGAAAU | 0.175 ± 0.1 | -0.667 ± 0.081 |
| UUACAGCAAUAUUACGUUUA | -0.512 ± 0.12 | -1.3 ± 0.11 |
| UCCAAGCAAUAUUACGUGGU | -1.45 ± 0.092 | -2.96 ± 0.1 |
